What is called Kd is the concentration at which binding is half-saturated. Lower therefore signals higher affinity. In general, koff refers to a measure of how fast the partners let go of each other. A higher koff goes with a short-lived complex. One may read the kon as the second-order rate constant of association.

This note sets out measurements from patent publication US20230167185A1.

Assay [1] has as its target UU73 (Clostridium tetani (tetanus toxin)).
Assay [2] concerns the target UU70 (Clostridium tetani (tetanus toxin)).
Assay [3] deals with UU71 (Clostridium tetani (tetanus toxin)).
The target of assay [4] is UU72 (Clostridium tetani (tetanus toxin)).
Assay [5] has as its target UU24 (Clostridium tetani (tetanus toxin)).
For assay [6], the target named is UU74 (Clostridium tetani (tetanus toxin)).

B1: IBIIICI scFv (scFv)
scFv: EVRLLQSGAALVRPGASVKLSCTASGFNIKDFNIHWVKQRPEQGLEWIGRIDPENGDAEYVPKFQVRATMTTDTSSNTVYLHLSSLTSGDTAVYYCTTGSYDLDVEYWGQGTTLTVSSGGGGSGGGGSGGGGSGGGGSELQMTQSPSSLSASLGDTVTITCHASQNINVWLSWYQQRPGNIPKLLIYKASTLHTGVPSRFRGSGSGTGFTLTISSLQPEDIATYYCQQGQSYPLTFGAGTKLELK
Take B1: the Kd in assay [1] came to 0.34 nM; in assay [2], 0.16 nM; in assay [5], 0.12 nM; in assay [6], 0.12 nM. The koff was 6.7e-05 s⁻¹ in assay [1]; 3.7e-05 s⁻¹ in assay [2]; less than 1e-05 s⁻¹ in assay [3]; less than 1e-05 s⁻¹ in assay [4]; 2.3e-05 s⁻¹ in assay [5]; 3.3e-05 s⁻¹ in assay [6]. For the same molecule, the kon in assay [1] amounted to 200000 M⁻¹ s⁻¹; in assay [2], 230000 M⁻¹ s⁻¹; in assay [3], 230000 M⁻¹ s⁻¹; in assay [4] it was 250000 M⁻¹ s⁻¹; in assay [5], 190000 M⁻¹ s⁻¹; in assay [6] it was 280000 M⁻¹ s⁻¹.

B2: 14GIIICII scFv (scFv)
scFv: QVQLQQPGAELVMPGASVNLSCKASGYTFTDYWMHWVKQRPGQGLEWIGEIDPSDNFSNLNQNFRGKATLTVDKSSRTAFLQLSSLTSEDSAVYYCAVEDYWGQGTTLTVSSGGGGSGGGGSGGGGSGGGGSDIVMTQATPSVLVTPGEAVSISCRASRSLLHSNGITYLYWFLQRPGQSPQVLIYRMSNLVSGVPDRFSGSGSGTAFTLRISRVEAEDVGVYYCMQHLEFPYTFGGGTKLEIK
Turning to B2, the Kd amounted to 0.87 nM in assay [1]; 0.29 nM in assay [2]; 0.6 nM in assay [3]; 0.6 nM in assay [4]; 0.3 nM in assay [5]; 1.7 nM in assay [6]. Also, the off-rate constant (koff) in assay [1] stood at 0.00044 s⁻¹; in assay [2], 0.00019 s⁻¹; in assay [3], 0.00032 s⁻¹; in assay [4], 0.00034 s⁻¹; in assay [5], 0.0002 s⁻¹; in assay [6], 0.00095 s⁻¹. Moreover, the kon was 510000 M⁻¹ s⁻¹ in assay [1]; 650000 M⁻¹ s⁻¹ in assay [2]; 540000 M⁻¹ s⁻¹ in assay [3]; 570000 M⁻¹ s⁻¹ in assay [4]; 660000 M⁻¹ s⁻¹ in assay [5]; 570000 M⁻¹ s⁻¹ in assay [6].
